Results taken from patent US20130090249A1 (CENTRE NATIONAL DE LA RECHERCHE SCIENTIFIQUE CNRS, published 2013).

Tests used:
Lingo-1-HA = biological target: T1, Lingo-1-HA (human, UniProt Q96FE5 42-620); assay: BRET competition in live HEK-293 cells; the competitor may take the place of either the RLuc or the YFP partner
T1 construct: also called Lingo-HA; HA-tagged whole Lingo-1 protein
T1 sequence: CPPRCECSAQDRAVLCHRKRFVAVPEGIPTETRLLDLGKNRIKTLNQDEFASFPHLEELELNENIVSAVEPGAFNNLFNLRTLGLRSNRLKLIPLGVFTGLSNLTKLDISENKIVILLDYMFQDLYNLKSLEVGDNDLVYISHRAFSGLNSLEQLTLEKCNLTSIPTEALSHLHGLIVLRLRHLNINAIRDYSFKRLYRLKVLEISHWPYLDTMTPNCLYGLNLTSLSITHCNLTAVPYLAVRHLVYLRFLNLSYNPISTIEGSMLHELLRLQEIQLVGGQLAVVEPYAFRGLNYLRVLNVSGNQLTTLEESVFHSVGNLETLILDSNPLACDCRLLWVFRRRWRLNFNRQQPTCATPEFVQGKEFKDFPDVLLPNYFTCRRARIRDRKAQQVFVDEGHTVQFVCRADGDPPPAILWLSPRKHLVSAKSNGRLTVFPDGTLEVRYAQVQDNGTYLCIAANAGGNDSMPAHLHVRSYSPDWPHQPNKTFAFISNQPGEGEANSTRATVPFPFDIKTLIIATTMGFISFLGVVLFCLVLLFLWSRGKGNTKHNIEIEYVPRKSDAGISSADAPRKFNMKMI
Procedure: (§1) HEK-293 cells were transfected with the Lingo-1-RLuc and Lingo-1-YFP fusion proteins (the donor/acceptor ratio remains constant) and increasing concentrations of the whole Lingo-1 protein (Lingo-1-HA, amino acids 1-620) or the dominant negative thereof (DN-HA, amino acids 1-577) tagged with HA. The BRET measurement was carried out 48 hours after the transfection on live cells.
(§2) The BRET signal obtained between the Lingo-1-RLuc and Lingo-1-YFP proteins is therefore specific and can be modulated. […] In addition, when increasing concentrations of HA-tagged Lingo-1 protein were added (Lingo-1-HA at 0, 200, 400, 800, 1600 and 2600 ng), the BRET signal decreased (FIG. 5b); thereby making it possible to plot inhibition curves.

DN-Lingo-1-HA = biological target: T2, DN-Lingo-1-HA (human, UniProt Q96FE5 42-577); assay: as above
T2 construct: Residues 1-577 are counted on the 620-amino-acid human Lingo-1 (NP-116197); Expressed in HEK-293 cells; also called DN-HA; HA-tagged dominant negative of Lingo-1
T2 sequence: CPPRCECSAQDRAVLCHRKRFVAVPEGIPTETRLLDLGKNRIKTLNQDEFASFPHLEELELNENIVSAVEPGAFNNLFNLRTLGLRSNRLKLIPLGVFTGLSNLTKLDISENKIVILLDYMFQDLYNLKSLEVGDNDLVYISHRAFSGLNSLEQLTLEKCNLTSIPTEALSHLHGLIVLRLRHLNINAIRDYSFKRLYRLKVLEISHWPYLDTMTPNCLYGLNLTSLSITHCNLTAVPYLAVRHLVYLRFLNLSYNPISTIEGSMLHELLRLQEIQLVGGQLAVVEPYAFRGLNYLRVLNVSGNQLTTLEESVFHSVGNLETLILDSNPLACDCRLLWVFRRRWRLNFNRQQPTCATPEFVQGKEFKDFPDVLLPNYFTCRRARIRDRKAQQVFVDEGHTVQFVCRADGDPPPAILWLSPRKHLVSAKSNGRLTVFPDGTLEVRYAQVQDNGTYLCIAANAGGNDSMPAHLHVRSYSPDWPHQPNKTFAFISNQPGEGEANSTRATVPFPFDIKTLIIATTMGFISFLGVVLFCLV
Procedure: as §1, §2

binding result (Lingo-1-HA): binds
binding result (DN-Lingo-1-HA): binds
B1: Lingo-1-RLuc (other)
chain: CPPRCECSAQDRAVLCHRKRFVAVPEGIPTETRLLDLGKNRIKTLNQDEFASFPHLEELELNENIVSAVEPGAFNNLFNLRTLGLRSNRLKLIPLGVFTGLSNLTKLDISENKIVILLDYMFQDLYNLKSLEVGDNDLVYISHRAFSGLNSLEQLTLEKCNLTSIPTEALSHLHGLIVLRLRHLNINAIRDYSFKRLYRLKVLEISHWPYLDTMTPNCLYGLNLTSLSITHCNLTAVPYLAVRHLVYLRFLNLSYNPISTIEGSMLHELLRLQEIQLVGGQLAVVEPYAFRGLNYLRVLNVSGNQLTTLEESVFHSVGNLETLILDSNPLACDCRLLWVFRRRWRLNFNRQQPTCATPEFVQGKEFKDFPDVLLPNYFTCRRARIRDRKAQQVFVDEGHTVQFVCRADGDPPPAILWLSPRKHLVSAKSNGRLTVFPDGTLEVRYAQVQDNGTYLCIAANAGGNDSMPAHLHVRSYSPDWPHQPNKTFAFISNQPGEGEANSTRATVPFPFDIKTLIIATTMGFISFLGVVLFCLVLLFLWSRGKGNTKHNIEIEYVPRKSDAGISSADAPRKFNMKMISRDPPVATMTSKVYDPEQRKRMITGPQWWARCKQMNVLDSFINYYDSEKHAENAVIFLHGNAASSYLWRHVVPHIEPVARCIIPDLIGMGKSGKSGNGSYRLLDHYKYLTAWFELLNLPKKIIFVGHDWGACLAFHYSYEHQDKIKAIVHAESVVDVIESWDEWPDIEEDIALIKSEEGEKMVLENNFFVETMLPSKIMRKLEPEEFAAYLEPFKEKGEVRRPTLSWPREIPLVKGGKPDVVQIVRNYNAYLRASDDLPKMFIESDPGFFSNAIVEGAKKFPNTEFVKVKGLHFSQEDAPDEMGKYIKSFVERVLKNEQ
notes: also called hLingo-1-RLuc
